Results reported in article PMC3787745, “Yeast Mnn9 is both a priming glycosyltransferase and an allosteric activator of mannan biosynthesis” (Open Biology, 2013).

Columns and labels:
[1] = substrate: Cc1cc(=O)oc2cc(O[C@H]3O[C@H](CO)[C@@H](O)[C@H](O)[C@@H]3O)ccc12; test: coupled fluorimetric assay with Aman6 mannosidase (4-MU release); assay type: biochemical, Saccharomyces cerevisiae; conditions: acceptor varied 0-10 mM, 1.2 mM GDP-Man, 10 mM MnCl2, 20 mM HEPES pH 7.5, 500 nM enzyme
[2] = substrate: Nc1nc2c(ncn2[C@@H]2O[C@H](COP(=O)(O)OP(=O)(O)O[C@H]3O[C@H](CO)[C@@H](O)[C@H](O)[C@@H]3O)[C@@H](O)[C@H]2O)c(=O)[nH]1; test: as above; assay type: biochemical, Saccharomyces cerevisiae; conditions: donor varied 0-1.2 mM, 10 mM 4MU-Man, 10 mM MnCl2, 20 mM HEPES pH 7.5, 500 nM enzyme

B1: ScMnn9 (Saccharomyces cerevisiae S288C) (protein)
chain: EGHIAHYDLNKLHSTSEAAVNKEHILILTPMQTFHQQYWDNLLQLNYPRELIELGFITPRTATGDLALKKLENAIKKVQTDKKTQRFSKITILRQNSQSFDKLMEKERHALDVQKERRAAMALARNELLFSTIGPHTSWVLWLDADIIETPPSLIQDMTKHNKAILAANIYQRFYDEEKKQPSIRPYDFNNWQESDTGLEIASQMGDDEIIVEGYAEIATYRPLMAHFYDANGVPGEEMALDGVGGGCTLVKAEVHRDGAMFPNFPFYHLIETEGFAKMAKRLNYDVFGLPNYLVYHIEEENH
notes: glycosyltransferase domain 93-395, lacking first 92 residues; N-terminal MBP-His6-TEV tag cleaved; E. coli BL21(DE3) pLysS
Km [1]: 6.5 (±0.3) mM | kcat [1]: 0.0033 s⁻¹ | Km [2]: 0.5 (± 0.2) mM | kcat [2]: 0.0633 s⁻¹
